Reference: the supplement of paper PMC11316812
± gives the standard deviation of the averaged measurements.

How the values were obtained:
MCF7 = assay: percentage of EdU-negative (G0-arrested) nuclei per well, 72 h; higher = more G0 arrest; conditions: reference: sequence is the full UniProt precursor, the tested protein was the secreted form or ectodomain
hTERT-HMEC = assay: as above; conditions: reference: sequence is the full UniProt precursor, the tested protein was the secreted form or ectodomain
[1] = protein concentration 0.020585 µM
[2] = protein concentration 0.20585 µM
[3] = protein concentration 0.00771429 µM
[4] = protein concentration 0.0771429 µM
[5] = protein concentration 0.0225 µM
[6] = protein concentration 0.01975 µM
[7] = protein concentration 0.1975 µM
[8] = protein concentration 0.03125 µM
[9] = protein concentration 0.3125 µM
[10] = protein concentration 0.00775 µM
[11] = protein concentration 0.0775 µM
[12] = protein concentration 0.0357143 µM
[13] = protein concentration 0.357143 µM
[14] = protein concentration 0.02372 µM
[15] = protein concentration 0.2372 µM
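Note: secreted proteins added to cultured cells, EdU pulse at the end, nuclei found by Hoechst imaging, EdU status from nuclear versus surrounding ring intensity ratio, PBS as neutral control.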

Sequence	percentage of EdU-negative (MCF7; [5]) [%]	percentage of EdU-negative (MCF7; protein concentration 0.225 µM) [%]	percentage of EdU-negative (hTERT-HMEC; [5]) [%]	percentage of EdU-negative (hTERT-HMEC; protein concentration 0.225 µM) [%]	other results
MAVRRDSVWKYCWGVLMVLCRTAISKSIVLEPIYWNSSNSKFLPGQGLVLYPQIGDKLDIICPKVDSKTVGQYEYYKVYMVDKDQADRCTIKKENTPLLNCAKPDQDIKFTIKFQEFSPNLWGLEFQKNKDYYIISTSNGSLEGLDNQEGGVCQTRAMKILMKVGQDASSAGSTRNKDPTRRPELEAGTNGRSSTTSPFVKPNPGSSTDGNSAGHSGNNILGSEVALFAGIASGCIIFIVIIITLVVLLLKYRRRHRKHSPQHTTTLSLSTLATPKRSGNNNGSEPSDIIIPLRTADSVFCPHYEKVSGDYGHPVYIVQEMPPQSPANIYYKV					percentage of EdU-negative (MCF7; [1]): 24.9 ± 1.2%; percentage of EdU-negative (MCF7; [2]): 25.5 ± 0.9%; percentage of EdU-negative (hTERT-HMEC; [1]): 4.57 ± 1%; percentage of EdU-negative (hTERT-HMEC; [2]): 6.25 ± 0.37%
MALDYLLLLLLASAVAAMEETLMDTRTATAELGWTANPASGWEEVSGYDENLNTIRTYQVCNVFEPNQNNWLLTTFINRRGAHRIYTEMRFTVRDCSSLPNVPGSCKETFNLYYYETDSVIATKKSAFWSEAPYLKVDTIAADESFSQVDFGGRLMKVNTEVRSFGPLTRNGFYLAFQDYGACMSLLSVRVFFKKCPSIVQNFAVFPETMTGAESTSLVIARGTCIPNAEEVDVPIKLYCNGDGEWMVPIGRCTCKPGYEPENSVACKACPAGTFKASQEAEGCSHCPSNSRSPAEASPICTCRTGYYRADFDPPEVACTSVPSGPRNVISIVNETSIILEWHPPRETGGRDDVTYNIICKKCRADRRSCSRCDDNVEFVPRQLGLTECRVSISSLWAHTPYTFDIQAINGVSSKSPFPPQHVSVNITTNQAAPSTVPIMHQVSATMRSITLSWPQPEQPNGIILDYEIRYYEKEHNEFNSSMARSQTNTARIDGLRPGMVYVVQVRARTVAGYGKFSGKMCFQTLTDDDYKSELREQLPLIAGSAAAGVVFVVSLVAISIVCSRKRAYSKEAVYSDKLQHYSTGRGSPGMKIYIDPFTYEDPNEAVREFAKEIDVSFVKIEEVIGAGEFGEVYKGRLKLPGKREIYVAIKTLKAGYSEKQRRDFLSEASIMGQFDHPNIIRLEGVVTKSRPVMIITEFMENGALDSFLRQNDGQFTVIQLVGMLRGIAAGMKYLAEMNYVHRDLAARNILVNSNLVCKVSDFGLSRYLQDDTSDPTYTSSLGGKIPVRWTAPEAIAYRKFTSASDVWSYGIVMWEVMSFGERPYWDMSNQDVINAIEQDYRLPPPMDCPAALHQLMLDCWQKDRNSRPRFAEIVNTLDKMIRNPASLKTVATITAVPSQPLLDRSIPDFTAFTTVDDWLSAIKMVQYRDSFLTAGFTSLQLVTQMTSEDLLRIGITLAGHQKKILNSIHSMRVQISQSPTAMA					percentage of EdU-negative (MCF7; [3]): 26.7 ± 1.5%; percentage of EdU-negative (MCF7; [4]): 23.4 ± 1.5%; percentage of EdU-negative (hTERT-HMEC; [3]): 4.82 ± 0.12%; percentage of EdU-negative (hTERT-HMEC; [4]): 5.86 ± 0.98%
MPRCRWLSLILLTIPLALVARKDPKKNETGVLRKLKPVNASNANVKQCLWFAMQEYNKESEDKYVFLVVKTLQAQLQVTNLLEYLIDVEIARSDCRKPLSTNEICAIQENSKLKRKLSCSFLVGALPWNGEFTVMEKKCEDA	27.2 ± 1.2	25.6 ± 1.6	5.21 ± 1.2	4.56 ± 0.34	
MKLAALLGLCVALSCSSAAAFLVGSAKPVAQPVAALESAAEAGAGTLANPLGTLNPLKLLLSSLGIPVNHLIEGSQKCVAELGPQAVGAVKALKALLGALTVFG [Q96QR1]	21.8 ± 1.8	23.7 ± 1.3	5.9 ± 0.79	5.2 ± 0.81	
MGPLMVLFCLLFLYPGLADSAPSCPQNVNISGGTFTLSHGWAPGSLLTYSCPQGLYPSPASRLCKSSGQWQTPGATRSLSKAVCKPVRCPAPVSFENGIYTPRLGSYPVGGNVSFECEDGFILRGSPVRQCRPNGMWDGETAVCDNGAGHCPNPGISLGAVRTGFRFGHGDKVRYRCSSNLVLTGSSERECQGNGVWSGTEPICRQPYSYDFPEDVAPALGTSFSHMLGATNPTQKTKESLGRKIQIQRSGHLNLYLLLDCSQSVSENDFLIFKESASLMVDRIFSFEINVSVAIITFASEPKVLMSVLNDNSRDMTEVISSLENANYKDHENGTGTNTYAALNSVYLMMNNQMRLLGMETMAWQEIRHAIILLTDGKSNMGGSPKTAVDHIREILNINQKRNDYLDIYAIGVGKLDVDWRELNELGSKKDGERHAFILQDTKALHQVFEHMLDVSKLTDTICGVGNMSANASDQERTPWHVTIKPKSQETCRGALISDQWVLTAAHCFRDGNDHSLWRVNVGDPKSQWGKEFLIEKAVISPGFDVFAKKNQGILEFYGDDIALLKLAQKVKMSTHARPICLPCTMEANLALRRPQGSTCRDHENELLNKQSVPAHFVALNGSKLNINLKMGVEWTSCAEVVSQEKTMFPNLTDVREVVTDQFLCSGTQEDESPCKGESGGAVFLERRFRFFQVGLVSWGLYNPCLGSADKNSRKRAPRSKVPPPRDFHINLFRMQPWLRQHLGDVLNFLPL					percentage of EdU-negative (MCF7; [6]): 27.3 ± 1.1%; percentage of EdU-negative (MCF7; [7]): 27.9 ± 2%; percentage of EdU-negative (hTERT-HMEC; [6]): 5.66 ± 0.4%; percentage of EdU-negative (hTERT-HMEC; [7]): 16.21 ± 0.11%
MGGRVFLAFCVWLTLPGAETQDSRGCARWCPQNSSCVNATACRCNPGFSSFSEIITTPTETCDDINECATPSKVSCGKFSDCWNTEGSYDCVCSPGYEPVSGAKTFKNESENTCQDVDECQQNPRLCKSYGTCVNTLGSYTCQCLPGFKFIPEDPKVCTDVNECTSGQNPCHSSTHCLNNVGSYQCRCRPGWQPIPGSPNGPNNTVCEDVDECSSGQHQCDSSTVCFNTVGSYSCRCRPGWKPRHGIPNNQKDTVCEDMTFSTWTPPPGVHSQTLSRFFDKVQDLGRDSKTSSAEVTIQNVIKLVDELMEAPGDVEALAPPVRHLIATQLLSNLEDIMRILAKSLPKGPFTYISPSNTELTLMIQERGDKNVTMGQSSARMKLNWAVAAGAEDPGPAVAGILSIQNMTTLLANASLNLHSKKQAELEEIYESSIRGVQLRRLSAVNSIFLSHNNTKELNSPILFAFSHLESSDGEAGRDPPAKDVMPGPRQELLCAFWKSDSDRGGHWATEGCQVLGSKNGSTTCQCSHLSSFAILMAHYDVEDWKLTLITRVGLALSLFCLLLCILTFLLVRPIQGSRTTIHLHLCICLFVGSTIFLAGIENEGGQVGLRCRLVAGLLHYCFLAAFCWMSLEGLELYFLVVRVFQGQGLSTRWLCLIGYGVPLLIVGVSAAIYSKGYGRPRYCWLDFEQGFLWSFLGPVTFIILCNAVIFVTTVWKLTQKFSEINPDMKKLKKARALTITAIAQLFLLGCTWVFGLFIFDDRSLVLTYVFTILNCLQGAFLYLLHCLLNKKVREEYRKWACLVAGGSKYSEFTSTTSGTGHNQTRALRASESGI	24.7 ± 1.8	26.3 ± 3.2	5.19 ± 0.7	5.66 ± 0.12	
MRLAVLFSGALLGLLAAQGTGNDCPHKKSATLLPSFTVTPTVTESTGTTSHRTTKSHKTTTHRTTTTGTTSHGPTTATHNPTTTSHGNVTVHPTSNSTATSQGPSTATHSPATTSHGNATVHPTSNSTATSPGFTSSAHPEPPPPSPSPSPTSKETIGDYTWTNGSQPCVHLQAQIQIRVMYTTQGGGEAWGISVLNPNKTKVQGSCEGAHPHLLLSFPYGHLSFGFMQDLQQKVVYLSYMAVEYNVSFPHAAQWTFSAQNASLRDLQAPLGQSFSCSNSSIILSPAVHLDLLSLRLQAAQLPHTGVFGQSFSCPSDRSILLPLIIGLILLGLLALVLIAFCIIRRRPSAYQAL	25.5 ± 1.1	26.5 ± 0.42	4.81 ± 0.13	7.36 ± 0.68	
MGIQGGSVLFGLLLVLAVFCHSGHSLQCYNCPNPTADCKTAVNCSSDFDACLITKAGLQVYNKCWKFEHCNFNDVTTRLRENELTYYCCKKDLCNFNEQLENGGTSLSEKTVLLLVTPFLAAAWSLHP	28.2 ± 1.9	25.8 ± 1	5.4 ± 0.53	5.24 ± 1.1	
MHYCVLSAFLILHLVTVALSLSTCSTLDMDQFMRKRIEAIRGQILSKLKLTSPPEDYPEPEEVPPEVISIYNSTRDLLQEKASRRAAACERERSDEEYYAKEVYKIDMPPFFPSENAIPPTFYRPYFRIVRFDVSAMEKNASNLVKAEFRVFRLQNPKARVPEQRIELYQILKSKDLTSPTQRYIDSKVVKTRAEGEWLSFDVTDAVHEWLHHKDRNLGFKISLHCPCCTFVPSNNYIIPNKSEELEARFAGIDGTSTYTSGDQKTIKSTRKKNSGKTPHLLLMLLPSYRLESQQTNRRKKRALDAAYCFRNVQDNCCLRPLYIDFKRDLGWKWIHEPKGYNANFCAGACPYLWSSDTQHSRVLSLYNTINPEASASPCCVSQDLEPLTILYYIGKTPKIEQLSNMIVKSCKCS					percentage of EdU-negative (MCF7; [8]): 30.8 ± 2.4%; percentage of EdU-negative (MCF7; [9]): 40.6 ± 2.4%; percentage of EdU-negative (hTERT-HMEC; [8]): 4.63 ± 1.4%; percentage of EdU-negative (hTERT-HMEC; [9]): 15.8 ± 4.9%
MRRPAAVPLLLLLCFGSQRAKAATACGRPRMLNRMVGGQDTQEGEWPWQVSIQRNGSHFCGGSLIAEQWVLTAAHCFRNTSETSLYQVLLGARQLVQPGPHAMYARVRQVESNPLYQGTASSADVALVELEAPVPFTNYILPVCLPDPSVIFETGMNCWVTGWGSPSEEDLLPEPRILQKLAVPIIDTPKCNLLYSKDTEFGYQPKTIKNDMLCAGFEEGKKDACKGDSGGPLVCLVGQSWLQAGVISWGEGCARQNRPGVYIRVTAHHNWIHRIIPKLQFQPARLGGQK [Q9BQR3]					percentage of EdU-negative (MCF7; [10]): 25.18 ± 0.16%; percentage of EdU-negative (MCF7; [11]): 26.7 ± 2.6%; percentage of EdU-negative (hTERT-HMEC; [10]): 4.44 ± 0.22%; percentage of EdU-negative (hTERT-HMEC; [11]): 6.65 ± 0.73%
MRPLAGGLLKVVFVVFASLCAWYSGYLLAELIPDAPLSSAAYSIRSIGERPVLKAPVPKRQKCDHWTPCPSDTYAYRLLSGGGRSKYAKICFEDNLLMGEQLGNVARGINIAIVNYVTGNVTATRCFDMYEGDNSGPMTKFIQSAAPKSLLFMVTYDDGSTRLNNDAKNAIEALGSKEIRNMKFRSSWVFIAAKGLELPSEIQREKINHSDAKNNRYSGWPAEIQIEGCIPKERS	27.2 ± 0.94	24.7 ± 0.92	4.35 ± 0.59	6.31 ± 1.2	
MCLSHLENMPLSHSRTQGAQRSSWKLWLFCSIVMLLFLCSFSWLIFIFLQLETAKEPCMAKFGPLPSKWQMASSEPPCVNKVSDWKLEILQNGLYLIYGQVAPNANYNDVAPFEVRLYKNKDMIQTLTNKSKIQNVGGTYELHVGDTIDLIFNSEHQVLKNNTYWGIILLANPQFIS [Q9UNG2]					percentage of EdU-negative (MCF7; [12]): 24.5 ± 2.7%; percentage of EdU-negative (MCF7; [13]): 27 ± 1.1%; percentage of EdU-negative (hTERT-HMEC; [12]): 5.8 ± 0.82%; percentage of EdU-negative (hTERT-HMEC; [13]): 7.64 ± 0.14%
MAQYLSTLLLLLATLAVALAWSPKEEDRIIPGGIYNADLNDEWVQRALHFAISEYNKATKDDYYRRPLRVLRARQQTVGGVNYFFDVEVGRTICTKSQPNLDTCAFHEQPELQKKQLCSFEIYEVPWENRRSLVKSRCQES	25.5 ± 1.2	25 ± 0.45	5.26 ± 0.4	5.09 ± 0.29	
MISPVLILFSSFLCHVAIAGRTCPKPDDLPFSTVVPLKTFYEPGEEITYSCKPGYVSRGGMRKFICPLTGLWPINTLKCTPRVCPFAGILENGAVRYTTFEYPNTISFSCNTGFYLNGADSAKCTEEGKWSPELPVCAPIICPPPSIPTFATLRVYKPSAGNNSLYRDTAVFECLPQHAMFGNDTITCTTHGNWTKLPECREVKCPFPSRPDNGFVNYPAKPTLYYKDKATFGCHDGYSLDGPEEIECTKLGNWSAMPSCKASCKVPVKKATVVYQGERVKIQEKFKNGMLHGDKVSFFCKNKEKKCSYTEDAQCIDGTIEVPKCFKEHSSLAFWKTDASDVKPC					percentage of EdU-negative (MCF7; [14]): 28.1 ± 0.39%; percentage of EdU-negative (MCF7; [15]): 24.5 ± 3.1%; percentage of EdU-negative (hTERT-HMEC; [14]): 5.35 ± 0.089%; percentage of EdU-negative (hTERT-HMEC; [15]): 5.3 ± 0.56%
